{"source": "patent US6495317B1", "about": "“DNA encodingmannose 6-phosphate reductase and recombinants produced therefrom” (Board of Trustees of Michigan State University, priority 1996, dated 2002)", "molecules": {"B1": {"name": "Recombinant M6PR: mannose 6-phosphate reductase purified from IPTG-induced E. coli clone D carrying celery cDNA (SEQ ID NO:2) (protein)", "chain": "MAITLNSGFKMPVLGLGVWRMDRNEIKNLLLSAINLGYRHFDCAADYKNELEVGEAFKEAFDTDLVKREDLFITTKLWNSDHGHVIEACKNSLKKLQLEYLDLYLIHFPMASKHSGIGTTRSILDDEGVWEVDATISLEATWHEMEKLVEMGLVRSIGISNYDVYLTRDILSYSKIKPAVNQIETHPYFQRDSLIKFCQKYGIAITAHTPLGGALANTERFGSVSCLDDPVLKKLSDKHNKSPAQIVLRWGVQRNTIVIPKSSKTKRLEENINIFDFELSKEDMELIKTMERNQRSNTPAKAWGIDVYA"}}, "key": {"[1]": {"system": "mannose 6-phosphate reductase (M6PR)", "test": "M6PR activity assay (NADPH oxidation), specific activity of purified enzyme", "format": "biochemical, celery (Apium graveolens)", "description": "Three putative M6PR and one non-positive clone (as determined by antibody screening) were tested for M6PR activity. Duplicate 10 ml cultures of each clone were grown in LB+ampicillin (amp; […]). Once an average OD600 of 0.5 had been attained one culture of each pair was induced by the addition of isopropyl-β-D-thiogalactopyranoside (IPTG; final concentration 10 mM). […] Cultures were maintained at 30° C. for a further 3 h and were harvested at an average OD600 of 1.29±0.02. Cells were pelleted by centrifugation (2000×g for 5 min) and washed twice by resuspending the pellets in 5 ml Tris (100 mM, pH 7.5) containing […], with a centrifugation step between each wash. After the final wash pelleted cells were maintained on ice. Just prior to disruption the cells were resuspended in 4 ml of extraction buffer (100 mM Tris-HCl pH 7.5, […], 10 mM DTT and 0.1% Triton X-100) and transferred to blood dilution vials (American Scientific Products, McGaw Park, Ill.). Cells were ruptured by suspending the vial containing the cells 0.5 cm above the cuphorn probe of a Heat Systems W-385 sonicator (Misonics Farmingdale, N.Y.) and subjecting them to 2 minutes sonication at full power. Coolant was circulated around the vial to maintain the temperature at approximately 4° C. After sonication, 1.5 ml aliquots of the homogenate were centrifuged at 13,000×g for 5 minutes at 4° C. […]"}, "[2]": {"system": "mannose 6-phosphate reductase (M6PR)", "test": "Kinetic characterization of purified M6PR (mannose 6-phosphate and NADPH kinetics)", "format": "biochemical, celery (Apium graveolens)", "settings": "30° C., 33 mM Tris-HCl pH 7.5, 3 mM DTT; for Km: read-out: km", "source_text": "Subsequent purification steps were essentially as described in Loescher et al., Plant Physiol. 98:1396-1402 (1992) except for Reactive Yellow 86 (RY86) chromatography. Here the active fraction from the gel filtration step was split in two, and each fraction run separately on the RY86 column as described in Loescher et al., Plant Physiol. 98:1396-1402 (1992). The active fractions were pooled and either diluted by the addition of 0.5 v of column buffer or desalted using centrifugal concentrating devices (30 kD cut-off membranes) and washed with 2 volumes of column buffer. This step was performed to dilute or remove NADPH. The sample was then loaded back onto the RY86 column and activity eluted in a linear gradient between 0 and 0.2 mM NADPH in column buffer. The purified M6PR was desalted and concentrated using centrifugal filtration and was either used immediately for kinetic characterization or stored at −21° C. after adding glycerol (1:1, v:v)."}}, "note": "Where two headings read alike, the source gives them in different places.", "data": [{"molecule": "B1", "values": [{"measurement": "average specific activity of the purified enzyme", "setting": "[1]; average of three preparations, 1 mU = 1 nmol NADPH oxidized per minute", "value": "3926±833", "unit": "mU/mg protein"}, {"measurement": "specific activity of the purified enzyme", "setting": "[1]; final two preparations", "value": "4441±13", "unit": "mU/mg"}, {"measurement": "Vmax; NADPH", "setting": "[2]; 9 NADPH concentrations 1-50 μM, mannose 6-phosphate 12 mM", "value": "6.0 ± 2.3 (2;3) μmol mg prot^−1 min^−1"}, {"measurement": "Km", "setting": "[2]; 9 NADPH concentrations 1-50 μM, mannose 6-phosphate 12 mM, NADPH", "value": "0.0062 ± 0.0024", "unit": "mM"}, {"measurement": "Vmax; mannose 6-P", "setting": "[2]; 12 M6P concentrations 1-50 mM, saturating NADPH 200 μM", "value": "8.0 ± 1.9 (4;6) μmol mg prot^−1 min^−1"}, {"measurement": "Km", "setting": "[2]; 12 M6P concentrations 1-50 mM, saturating NADPH 200 μM, mannose 6-P", "value": "10.1 ± 1.4", "unit": "mM"}]}]}
